Laboratory results as given in patent US20150065421A1, “BASAL INSULIN THERAPY” (SANOFI, priority 2012, published 2015).

Tested on: people at high risk for vascular disease with either IFG, IGT, or early type 2 diabetes
Experiment: ORIGIN trial: hypoglycemia, weight change and glargine adherence
Assay type: in vivo, human
Excerpt: Participants were asked to self-administer daily subcutaneous saline injections and to check their capillary glucose levels during a 10 day run-in period. Adherent participants were then provided with lifestyle advice and randomly allocated to either insulin glargine (Lantus™) or standard approaches to glycaemic control. Participants allocated to insulin glargine who were also taking a thiazolidinedione stopped that medication at the time of randomization; otherwise the insulin glargine was added to their glycemic regimen. These participants were instructed to inject insulin glargine in the evening, starting at 2, 4 or 6 units (depending on their initial FPG) and to increase the dose at least once per week targeting a self-measured FPG level ≦5.3 mmol/l (95 mg/dl) and ≧4 mmol/l (72 mg/dl). […] If participants developed uncontrolled hyperglycemia, investigators were permitted to add rapid-acting insulin. No other glucose-lowering medication could be added or increased. FPG levels were measured in the local laboratory at every visit and the results were regularly reviewed along with the dose of insulin to ensure that insulin was being effectively trirated. People not diagnosed with diabetes by the time of the penultimate study visit down-titrated insulin glargine by 10 units per day and stopped any metformin that was prescribed.
Outcomes and other data were collected at scheduled study visits at 0.5, 1, 2, and 4 months after randomization and every 4 months thereafter. Weight, waist and hip circumference were measured annually. HbA1c levels were assayed in local laboratories at every visit for the first year and then annually in people without diabetes and every 4 months for people with diabetes. A first morning urine collection was sent centrally and assayed for creatinine and albumin at baseline, 2 yrs and study end.
There were 2 co-primary composite CV outcomes. The first was CV death, non-fatal MI or non-fatal stroke, and the second was a composite of any of these events or a revascularization procedure or hospitalization for heart failure. Secondary outcomes included a composite microvascular outcome comprising a doubling of serum creatinine from baseline, progression of albuminuria category from normoalbuminuria or microalbuminuria to microalbuminuria or overt nephropathy, renal replacement therapy, renal death, retinal photocoagulation or vitrectomy for retinopathy. They also included new type 2 diabetes developing by the time of the 1st post-trial oral glucose tolerance test in participants without baseline diabetes, and all-cause mortality. Other outcomes included incident cancers, CV hospitalizations, and angina. Cardiovascular and cancer outcomes were reviewed by adjudicators masked to treatment allocation. Episodes of hypoglycaemia since the prior visit were recorded at each visit. Symptomatic hypoglycemia was classified as confirmed if a concomitant recorded capillary glucose level was <3 mmol/L (54 mg/dL). Severe hypoglycemia was defined as hypoglycemia that required assistance plus either prompt recovery with glucose or glucagon or a documented capillary glucose ≦2.0 (36 mg/dL). New diabetes was diagnosed if 2 consecutive FPG levels within a 4-month period were ≧7 mM (126 mg/dL) during the trial; a diagnosis of diabetes was made by a physician and a pharmacologic antidiabetic agent was being taken and there was evidence of either a FPG ≧7 mM (126 mg/dL) or any glucose value ≧11.1 mM (200 mg/dL); either 1 or more capillary glucose levels were ≧11.1 mM (200 mg/dl) and a lab-measured FPG was ≧7 mmol/l (126 mg/dl) or a lab measured random glucose level was ≧11.1 mM (200 mg/dl) during down-titration of glargine insulin; or any FPG was ≧7 mM (126 mg/dl) or 2 hour plasma glucose was ≧11.1 mM (200 mg/dl) during the first oral glucose tolerance test.

“(Gly A21) Arg (B31) Arg (B32) human insulin [insulin glargine]” was tested, and the “more severe hypoglycemia episodes than standard care” value (absolute risk difference) was “approximately 0.7 per 100 person-years”, the “more suspected or confirmed hypoglycemia episodes than standard care” value (absolute risk difference) was roughly 11 per 100 person-years and the “annual incidence of severe hypoglycemia” value (basal insulin in ORIGIN) was 1.00%. The “Reason Stopped: N Hyperglycemia (%), Ever Off” value (first time off) was 4 (0.15) N (%), the “Reason Stopped: N Hypoglycemia (%), Ever Off” value (first time off) was 218 (8.2) N (%) and the “Reason Stopped: N Wt Gain (%), Ever Off” value (first time off) was 4 (0.15) N (%). For the same substance, the “risk of hypoglycemia relative to standard care participants” value (higher) was “approximately 3 fold”, the “Any Symptomatic Hypoglycemia, Mean Number of Episodes/yr” value (in vivo) was 2.6 (4.1) Episodes/yr and the “Any Symptomatic Hypoglycemia, No Episodes During Follow-up (%)” value (in vivo) was 2691 (43.0) N (%). For the same substance, the “Confirmed Symptomatic Hypoglycemia, Mean Number of Episodes/yr” value (in vivo) was 1.3 (2.3) Episodes/yr, the “No Confirmed Episodes During follow-up (%)” value (in vivo) was 3652 (58.3) N (%) and the “incidence of the first episode of any (confirmed or unconfirmed) hypoglycemia” value (insulin glargine group) was 16.73 per 100 person-years. For the same substance, the mean weight gain (insulin glargine group) was 1.6 kg, the “participants without any episode of symptomatic hypoglycemia during the entire trial (number)” value (insulin glargine group) was 2691 participants and the “incidence of the first episode of nonsevere symptomatic hypoglycemia confirmed by a self-measured glucose level 3 mmol/l (54 mg/dl)” value (insulin glargine group, P<0.001) was 9.81 per 100 person-years. For the same substance, the “incidence of the first episode of severe hypoglycemia” value (insulin glargine group, P<0.001 vs standard care) was 1.00 per 100 person-years, the “participants without any episode of symptomatic hypoglycemia during the entire trial (percent)” value (insulin glargine group, median 6.2 years) was 43% and the “Reason Stopped: N Hyperglycemia (%), Permanently Off” value (last time off and stayed off) was 2 (0.2) N (%). For the same substance, the “Reason Stopped: N Hypoglycemia (%), Permanently Off” value (last time off and stayed off) was 42 (4.0) N (%), the “Reason Stopped: N Wt Gain (%), Permanently Off” value (last time off and stayed off) was 4 (0.4) N (%) and the “Severe Hypoglycemia, Total Episodes During Follow-up” value (median follow-up 6.2 years) was 457. For the same substance, the “Any Symptomatic Hypoglycemia, ≧1 Episode (N/100py)” value (nonsevere) was 3573 (16.73) N/100py, the “Confirmed Symptomatic Hypoglycemia, ≧1 Confirmed Episode (N/100py)” value (nonsevere, self-measured glucose ≦3 mmol/l (54 mg/dl)) was 2612 (9.81) N/100py and the “Severe Hypoglycemia, ≧1 Episode (N/100py)” value (participants (rate per 100 person-years), P<0.001 vs standard care) was 359 (1.00) N/100py. For the same substance, the “1 or more nonsevere hypoglycemic episodes confirmed by glucose <3 mmol/l (<54 mg/dl)” value (people with diabetes at enrollment) was 10.5 per 100 person-years and the “1 or more nonsevere hypoglycemic episodes confirmed by glucose <3 mmol/l (<54 mg/dl)” value (people without diabetes at enrollment) was 5.7 per 100 person-years.
